According to paper PMC3281933:

Target: low density lipoprotein receptor-related protein 1 (LRP1) (human (endogenous in 1064Sk human skin fibroblasts))

- CCN1/TNFα-induced apoptosis of human skin fibroblasts (CCN1 2 µg/ml, TNFα 10 ng/ml, 5 hrs) after pre-incubation with 1 µM recombinant RAP: 60%
B1: CCN1 (CYR61) (natural protein)
chain: TCPAACHCPLEAPKCAPGVGLVRDGCGCCKVCAKQLNEDCSKTQPCDHTKGLECNFGASSTALKGICRAQSEGRPCEYNSRIYQNGESFQPNCKHQCTCIDGAVGCIPLCPQELSLPNLGCPNPRLVKVTGQCCEEWVCDEDSIKDPMEDQDGLLGKELGFDASEVELTRNNELIAVGKGSSLKRLPVFGMEPRILYNPLQGQKCIVQTTSWSQCSKTCGTGISTRVTNDNPECRLVKETRICEVRPCGQPVYSSLKKGKKCSKTKKSPEPVRFTYAGCLSVKKYRPKYCGSCVDGRCCTPQLTRTVKMRFRCEDGETFSKNVMMIQSCKCNYNCPHANEAAFPFYRLFNDIHKFRD
